Measured values taken from the DeepSol protein solubility set.

Test: soluble on expression in E. coli; label from the status in PepcDB or PDB records

Row | Sequence | soluble on expression in E. coli
1 | MSLSENLIIFNAKVVTPLGFSARKGKEMAELRILEKATVEVVDGIITYVGPNRGEVRDGYYHHFWHYNARGKCLLPGFVDSHTHFVFGGERAEEFSWRLKGESYMSIMQRGGGIASTVQATRELSFIHLRSKAEGLLKKMTAMGITTVEGKSGYGLNRETELLQLKVMRSLNKDEGVRVDIVPTFLGAHALPDEYKERPDDYIDFLIRELLPVIQRDSLAEFCDVFCEEGVFSIEQSRRLLTAAGDYGLLPKLHADEIVPLGGAELAAELGAVSADHLLHASDAGIEAMARKGVVATLLPLTAFALKEPYARGRDMIDAGCAVALATDLNPGSCFSGSIPLTFALACIHMQLTVEEAITALTLNGAAALNRADSIGSIEVGKKGDFVVLDSDNYHILPYYVGMNCVNTTIKGGMLYPSEGHHHHHH | soluble
2 | MGSDKIHHHHHHMPEHDVRLQQLTVWLDEQLNDLFRDNAWGEVPAGSLTAASSDASFRRYFRWQGAGHSFVIMDAPPPQENCRPFVAIDHLLASADVHVPLIHAQDLERGFLLLGDLGTQTYLDIINADNADGLFADAIDALLKFQRLPMDAPLPSYDDALLRREVELFPEWYVGRELGLTFTDAQKATWQRVSQLLIDSALAQPKVLVHRDYMPRNLMQSTPNPGVLDFQDAVYGPVTYDITCLFKDAFVSWPQARVEGWLGDYWQQAQAAGIPVHAEFEAFHRASDLMGVQRHLKVIGIFARICHRDGKPRYLGDVPRFFAYINEVIGRRPELAELGELIAELQAGARA | not soluble
3 | MALIEYNPPLEPYLDIIYQDNHLCVVNKPSGLLSVPGNQPQYYDSAMSRVKEKFGFCEPAHRLDMATSGIIVFALSKAADRELKRQFREREPKKHYQAIVWGHLENDYGEVNLPMICDWENRPRQRLDFVLGKRAVTKFEVLARLPNNSTRVKLTPVTGRSHQLRLHMLALGHPILGDKFYSHPQAKVMSPRLCLHAEELTITHPITGETMTFNAKSDFLEHHHHHH | not soluble
4 | MMVRILTRLGQVREAEEKYRRELVDFRMGEVYGNLRAIIADEDVEVRAGEAKPVKIKEVSIPANHIVFMCAYATNPLGHPIAAGEETPLPISMDRKADHATFVAAADGKISRNDLLGVLIILPVELTH | not soluble
5 | SAQDVDECSLGANPCEHAGKCINTLGSFECQCLQGYTGPRCEIDVNECVSNPCQNDATCLDQIGEFQCICMPGYEGVHCEVNTDECASSPCLHNGRCLDKINEFQCECPTGFTGHLCQVDLHHILDAQKMVWNHR | soluble
6 | MSLKQAAENTLNLNPVIGIRGKDLLTSARMVLLQAVRQPLHSARHVAHFSLELKNVLLGQSELRPGDDDRRFSDPAWSQNPLYKRYMQTYLAWRKELHSWISHSDLSPQDISRGQFVINLLTEAMSPTNSLSNPAAVKRFFETGGKSLLDGLGHLAKDLVNNGGMPSQVDMDAFEVGKNLATTEGAVVFRNDVLELIQYRPITESVHERPLLVVPPQINKFYVFDLSPDKSLARFCLRNGVQTFIVSWRNPTKSQREWGLTTYIEALKEAIEVVLSITGSKDLNLLGACSGGITTATLVGHYVASGEKKVNAFTQLVSVLDFELNTQVALFADEKTLEAAKRRSYQSGVLEGKDMAKVFAWMRPNDLIWNYWVNNYLLGNQPPAFDILYWNNDTTRLPAALHGEFVELFKSNPLNRPGALEVSGTPIDLKQVTCDFYCVAGLNDHITPWESCYKSARLLGGKCEFILSNSGHIQSILNPPGNPKARFMTNPELPAEPKAWLEQAGKHADSWWLHWQQWLAERSGKTRKAPASLGNKTYPAGEAAPGTYVHEREGHHHHHH | not soluble
7 | AIADIEVDIIEFKVPLENNKTIFIWDIQPTFTEAYIYESLWSVYSAFGDLYLLKVCPNATVAEPGFYALVKFYSSAQASKAQRATDKQCLFQSSPLKVRLSTKQNLSFYSSKPLCLSKCHNLANHYLGFGGWTTRIVTLKDLSNCVDAGCQEETGDQGVLLKYGCIMELSFPHHGMSCQGVGVAEEVLDSDQDPEEKLRKRGALMKRAKDKAMEVAFEKVLLLILGNGKVAIEIKIDPDEIVPEENSERVIKVNDISWTHIESADSNAEEDFLWDLTEDLPY | soluble
8 | GAMIRSRQPLLDALGVDLPDELLSLALTHRSYAYENGGLPTNERLEFLGDAVLGLTITDALFHRHPDRSEGDLAKLRASVVNTQALADVARRLCAEGLGVHVLLGRGEANTGGADKSSILADGMESLLGAIYLQHGMEKAREVILRLFGPLLDAAPTLGAGLDWKTSLQELTAARGLGAPSYLVTSTGPDHDKEFTAVVVVMDSEYGSGVGRSKKEAEQKAAAAAWKALEVLDNAMPGKTSA | soluble
9 | MEQIERIAQLYPVIMRVMGRIRSLVHDGMDLTYNQYKMLLTIYDKGSCPLNLLARELGIAMSSASEMVERLVNLGIVYRAVDEDNRRQVIIYTTDRGEELIRELRHGIIENYRQLFARLPEGDQERLATAFETIADVLGKLE | not soluble
10 | MGSDKIHHHHHHMKYTFNEEKAFDIVAIGRACIDLNAVEYNRPMEETMTFSKYVGGSPANIAIGSAKLGLKAGFIGKIPDDQHGRFIESYMRKTGVDTTQMIVDQDGHKAGLAFTEILSPEECSILMYRDDVADLYLEPSEVSEDYIANAKMLLVSGTALAKSPSREAVLKAVQYAKKHQVKVVFELDYRPYTWQSSDETAVYYSLVAEQSDIVIGTRDEFDVMENRTGGSNEESVNHLFGHSADLVVIKHGVEGSYAYSKSGEVFRAQAYKTKVLKTFGAGDSYASAFIYGLVSGKDIETALKYGSASASIVVSKHSSSEAMPTAEEIEQLIEAQS | not soluble
11 | NLAHDTVFEVRNVTSRDRKKVRDISFSVCRGEILGFAGLVGSGRTELMNCLFGVDKRAGGEIRLNGKDISPRSPLDAVKKGMAYITESRRDNGFFPNFSIAQNIAISRSLKDGGYKGAMGLFHEVDEQRTAEAQRELLALKCHSVNQNITELSGGNQQKVLISKWLCCHPEVIIFDEPTRGIDVGAKAEIYKVMRQLADDGKVILMVSSELPEIITVCDRIAVFCEGRLTQILTNRDDMSEEEIMAWALPHE | not soluble
12 | MDGNQYEAIFLNYFRGIFPNADNLNVKCVKRMSEQQMKTTISRHGMRCTVLNGKDKISSYTVKKIVETPGKREYYGVRDIFAFKLLDMMGVGPKVHFVSNGEVGDDVGLFIVTEDD | not soluble
13 | MAKEKARYFTFLLYPESIPSDWELKLETLGVPMAISPLHDKDKSSIKGQKYKKAHYHVLYIAKNPVTADSVRKKIKLLLGEKSLAMVQVVLNVENMYLYLTHESKDAIAKKKHVYDKADIKLINNFDIDRYVTLDVEEKTELFNVVVSLIRAYTLQNIFDLYDFIDENGETYGLTINLVNEVIAGKTGFMKLLFDGAYQRSKRGTKNEER | soluble
14 | PVTETVDGQGQAWRHHNGFDFAVIKELKTAASQYGATAPYTLAIVESVADNWLTPTDWNTLVRAVLSGGDHLLWKSEFFENCRDTAKRNQQAGNGWDFDMLTGSGNYSSTDAQMQYDPGLFAQIQAAATKAWRKLPVKGD | soluble
15 | MGSDKIHHHHHHMKKLVFDYEMKLSFSSPVTDHRFQLRCIPATGPRQQVIDVAVKIEPDVELETTIDSFDSVVMTGFIPEPHTMFNYSVTGIAFVDNAHIKSEIYKPLYRFNSALTVPGPAIEALIGICHERIVSLPADCTPIDQAREVMDEVFKTFVYTPASTTIRTTAEEAFAQRKGVCQDYAHVMLSVCRHVGLTARYIAGLLGGEGATHAWVEIYHDGRWVGLDPTHNRMVDDNYITIAHGRDYRDCMLDIGIFSGCDVKQDQWVNASVHEQGY | not soluble
16 | MPNCPNCQKPVYFAERVSSLGKDWHRPCLKCANKACGKTLSAGSHSEHEGKPYCNRCYGALFGPKGYGHGGTESHTFLQGTTGN | soluble
17 | GSSVSSVPTKLEVVAATPTSLLISWDAPMSSSSVYYYRITYGETGGNSPVQEFTVPYSSSTATISGLSPGVDYTITVYAWGEDSAGYMFMYSPISINYRTC | soluble
18 | MYTAENAPGVAVLLSGDADVPGPLTGLPTHQDNLDTVIGRYSRLIVVGADADLGAVLTRLLRTDRLDVEVGYVPRRRSPATRAYRLPAGRRAARRARCGVARRVPLIRDETGSVIVGRAQWLPAEEQALIHGEAVVDDTVLFDGDVAGVCIEPTLTLPGLRAAVDGAGKWRRWIGGRAAQLGTTGAAVLRDGVAAPRPVRRSTFYRNVEGWLLVR | soluble
19 | MTLNAFIEKLSTQPELIEFTETMAVIESHYEFTPTEFANGNTVNLADQNNGSCKIFAFALLNQLSVDQTLACFGQYYRQDVLENPQGDDHQNIRNFMVTGWAGVQFKAQALQAK | not soluble
20 | MAGDPMNVEGMATGGIHMELHCPQCQHVLDQDNGHARCRSCGEFIEMKALCPDCHQPLQVLKACGAVDYFCQHGHGLISKKRVEFVLALEHHHHHH | not soluble
21 | MANPIKIGIGGPVGAGKTQLIEKVVKRLSKEMSIGVITNDIYTKEDEKILVNSGVLPESRIIGVETGGCPHTAIREDASMNFAAIDELLERHDDIELIFIESGGDNLAATFSPELVDFSIYIIDVAQGEKIPRKGGQGMIKSDFFVINKTDLAPYVGASLEQMAEDTKVFRGKRPFTFTNLKTDEGLDEVIDWIERDTLLKGLS | not soluble
22 | MGSSHHHHHHSSGLVPRGSHMAKAPEQTVTEPVGSYARAERPQDFEGFVWRLDNDGKEALPRNFRTSADALRAPEKKFHLDAAYVPSREGMDALHISGSSAFTPAQLKNVAAKLREKTAGPIYDVDLRQESHGYLDGIPVSWYGERDWANLGKSQHEALADERHRLHAALHKTVYIAPLGKHKLPEGGEVRRVQKVQTEQEVAEAAGMRYFRIAATDHVWPTPENIDRFLAFYRTLPQDAWLHFHCEAGVGRTTAFMVMTDMLKNPSVSLKDILYRQHEIGGFYYGEFPIKTKDKDSWKTKYYREKIVMIEQFYRYVQENRADGYQTPWSVWLKSHPAKA | soluble
23 | MSLAENSLKIWNWSYYIDEALLDEFAAHAGIPRENIVYDEYDDPNVVLSRLEAGKSGYDVVIIPDYILDVAIKEGLLMELNKSLIPNYPHLDEKFKSTPYDPEGRYSAVYMWGTTGFGYRSDLAEKVTTLRQIFDPDYGYLKKYSKKITMLEEPIEVILACKAFLGKSVDDWSDETMQEVKEALIRQKPYLAAYAGANVYVEGLKNGSIYVAHAYNGDIVRLQDEEGVDQASFAIPEEGGTIWTDNMCIPKDAENVELAHEFINFMLDPEVSGRNSDYIKYASPVKEARNYVSEEVLENPAVYVPEDLMKKLWFTPQLDEEARRKIENLMIEVKASTEGHHHHHH | soluble
24 | MSGAPPPPPPYNQAYNAYPQPPQGVYTVQPGVPIGQGVQPAYAVYYQQPQTVIVDDCHHHHHHREREHGGGGGEMCCLAGLMACLCFLCLSK | not soluble
25 | MGSDKIHHHHHHMATRHDRDGGQTTANLTIATGLDAFTRKEWATLAGTTRSDSDYNPFISHEFLAALEESGCAARRTGWLPQHLRLEDANGSLLGVVPCYLKSHSKGEYVFDYGWADAFERAGGQYYPKLQVSVPFTPVTGPRLLASKDADPDAVRQALAEGLKTLTDRLGVSSLHVTFAPRSETEVLSHAGFLTRTDQQFHFFNEGYGSYEDFLEALASRKRKALKKERRTAVEAGMEIEWLTGRDITEAAWDDFFAFYMDTASRKWGRPYLNRLFFSLIGERMADDILLVMAKRGSRYIAGAINFIGSDALYGRNWGAIEHHPFLHFEVCYHQAIEFAIAKGLKRVEAGAQGEHKLARGYLPVTTYSAHYIAHPGLRRAVADYLSRERREVEAIGDFLTEHSPYKKG | not soluble
26 | HKEDKEDFAELSGIAVPAEITAEDGTMFKEALLFTHRGLSGPSVLQISSFWKAGQKVSINLVPNEDIALLLERSLEKHPNQSLKNTLAKVLPKRLVEVLIERKELMDKPLKQFNPKELASVVERLENWSIAPNGTEGYRTAEVTLGGVDTDHLSSKTMECKNIKGLYFIGEVMDVTGWLGGYNFQWCWSSGFVAGQWV | not soluble
